In the test the target is human Claudin 18.2 (hClaudin18.2) (human) (UniProt P56856). Kind of test: flow cytometry on CHO cells overexpressing claudin18.2. For orientation: In flow cytometry, cells or beads pass a laser one at a time.

As usually defined, the EC50 is the midpoint of the concentration-response curve. A high value points to weaker potency. As for IMAB362-FC (Fc fusion), the EC50 stood at 2 µg/mL.

The values above are taken from patent publication US20250270313A1.
